Where a chain is given by its changes, count along the chain named.
B1: B73 (antibody, V domains shown)
VH: QVQLRESGPSLVKPSQTLSLTCTVSGFSLSSYDVGWVRQAPGKALECLGSITNRGKTGYNPALKSRLSITKDNSKSQVSLSLNSVTTEDTATYYCAKLNSGGYGIDGNGCYAFGSNYNLYVDAWGQGLLITVSS
VL: QAVLTQPSSVSGSLGQRVSITCSGSSSNLGTYNVGWYQQVPGSGLRTIIYGSSSRPSGVPDRFSGSRSGNTATLTISSLQAEDEADYFCTAYDHSISTAVSGSGTTLTVL
B2: C5 (antibody, V domains shown)
VH: QVQLRESGPSLVKPSQTLSLTCTVSGFSLSSYGVGWVRQAPGRALEFLADIYSDGSTTYNLALKSRLSIMKDNSKSEVSLSLSSVTTEDTATYYCAKSSRGVGWGDGLHYNENDAGAWGQGLLVTVSS
VL: QAVLSQPPSVSGSLGQTVTIPCTGSSNNIGILGVSWYQQIPGSAPRTLVYNNNKRPSGVADRFSGTKSGNTGTLTIASLQAEDEADYYCASADPNFGGGTRVTVL
B3: C9 (antibody, V domains shown)
VH: QVQLRESGPSPVKPSQTLSLTCTVSGFSLSSYAVAWVRQAPGKALEWVAGISGGGSTSYNAALKSRLRITKDNSKSQVALSLSSVTSEDTATYYCVKCANDYGSYFCYNYDYGYDFYVDAWGQGLLVTVSS
VL: QAVLTQPSSVSGSLGQRVSITCAGSSSNIGTYSVGWYQQVPGSGLTTIIYETTGRPKGVPDRFSGSKSGNTATLTITSLQAEDEADYFCVTYELGSGAVFGSGTTLTVL
B4: B57 (antibody, V domains shown)
VH: QVQLRESGPSLVKPSQTLSLTCTVSGFSLSGYAVTWVRRAPGQALECLGGISRGGLTNNNPALRSRVSITKDDSKSQVSLSVSTVTPEDTATYYCVRLGATKFGDYGCYGYGLYVDTWGQGLPVTVSS
VL: QAVLTQPSSVSGSLGQRVSITCSGSSSNIGRHGVSWYQQVPGSGLRTIIYSGNSRPSGVPDRFSGSKSGNTATLTISSLLAEDEADYFCAADDIVSRTTFFGSVTTLTVL
B5: A19 (antibody, V domains shown)
VH: QVQLRESGPSLVKPSQTLSLTCTTSGFSLSSYAVGWVRQAPGKALEWVGGISSGGKTCPSPALKTRLSITKLNSRGQVSLSVGSVSTEDTATYYCVKFFSGGWTYSCYGIDFGSVDAWGQGVLVTVSS
VL: QAVLTQPSSVSGSLGQRVSITCSGSSNNIGSYGVGWYQQVPGSGLRTIIYGSTSRPSGVPDRFSGSKSGNTATLTISSLQAEDEADYFCAAGDDSSSSVDVFGSGTTLTVL
B6: B77 (antibody, V domains shown)
VH: QVQLRESGPSLVKPSQTLSLTCTISGFSLSSYTIGWVRQAPGKALEWIGDMSNGGMPYYNPALKSRLSITKHNSKSQVRLSVSSVTPEDTATYYCAKSRYTGDGSIGLYGVDAWGQGLLITVSS
VL: QAVLTQPSSVSGSLGQRVSITCSGTYSNVGTGNYVSWFQQIPGSAPRTLIYSVTNRASGVPDRFSGSRSGHTATLTISSLQAEDEADYFCLSWQSGNTALFGSGTTLTVL
B7: B82 (antibody, V domains shown)
VH: QVQLRESGPSLVKPSQTLSLTCTVSGFSLSNYAVGWVRQAPGKALEYLGGVRLRGRPDYNPALESRLSITKDNSKSQVSLSVSSVTLEDTATYYCAKSSSGLWDGGCCGGSTSCYVDSWGQGLLVTVSS
VL: QAVLTQPSSVSGSLGQRVSITCSGSSSNIGTYTVGWYQQVPGSGLRTIIYSNNNRPSGVPDRFSGSKSGNTATLTISSLQAEDEADYFCVTYESSISTALFGRGTTLTVL
B8: E18 (antibody, V domains shown)
VH: QVQLRESGPSLVTPSQTLSLTCAVSGGSLSTHDVVWVRQAPGRALEWVGGISSRGTTYYNPALKSRLSITQDLSKNQVSLSVGSVTPDDTATYYCAKDLCGGRINGCYNDGYYYSLRVDAWGQGLLVTVSS
VL: QAVLAQPSSVSGSLGQRVSITCSGSSNNIGSYGVGWYQQVPGSGLRTIIYGSSNRPSGVPDRFSGSKSGNTATLTISSLQAEDEADYFCAASDYSSNTVVFASGTTLTVL
B9: B66 (antibody, V domains shown)
VH: QVQLRESGPSLVKPSQTLSLTCTVSGFSLTTYSVNWVRQTPGKALECLGGITSGGNAYYQPSLKSRLSITKDNSKNQVSLSINSATPEDTATYYCGKLSGTGVCEGGCACGHDPHVDAWGQGVLVTVSS
VL: QAVLTQPSSVSGSLGQRISITCSGSSNNVGLYNVGWYQQIPGSGLRTIIYAGDRRPSGVPDRFSGSEFGDTATLTISSLQAEDEADYFCVTYDSTISAAVFGSGTTLTVL
B10: B74 (antibody)
VH: QVQLRESGPGLVKPSQTLSLTCTASGFSLSIKAVGWVRQAPGKALEWLGSIDTGGNTGYNPGLKSRLSITKDNSKSQVSLSLSSVTTEDSATYYCATVHQETKKSCSDGYYYRNECGAYGDCTVGNCCCSYASDYCNWCDFRRVTPTYTYEHHVEAWGQGLLVTVSS
VL: QAVLTQPSSVSGSLGQRVSITCSGSSGNVGNGYVSWYQLIPGSAPRTLIYGDTTRVSGVPDRFSGSRSGNTATLTISSLQAEDEADYFCASAEDSSNNAVFGSGTTLTVL
B11: E34 (antibody, V domains shown)
VH: QVQLRESGPSLVKPSQTLSLTCTVSGFSLNDYNVGWVRQAPGKALECLGGYKADGSTNYNSALKSRLSITKDSSKKQVSLSLSSVTTEDTATYYCAKCPSRWGCDYCDNYDFWGQGLLVTVSS
VL: B10 VL with G27S, N28D, N31K, I40M, A44G, T54S, V56I, E93D, N97S
B12: B83 (antibody)
VH: QVQLRESGPSLVKPSQTLSLTCTASGFSLSDKAVGWVRQAPGKALEWLGSIDTGGSTGYNPGLKSRLSITKDTSKTQVSLSVSSVTTEDSATYYCTNVHQKTTTERSCPDLGYKYECGNNCCWYSSCRGCIQGTYTSTYNFYVHAWGQGLRVTVSS
VL: B10 VL with G27S, A44G, T54S, V56A, A92T, N97S, A99V
B13: F169 (antibody, V domains shown)
VH: QVQLRESGPSLVKPSQTLSLTCTVSGFSLSTYGVAWVRQAPGKALEWIGGISGRGSGSEYYNPPLQSRLSITKDTSRSQVFLSVRTVAPEDTATYYCVKCIDSWCNYDDSGDIDAWGQGLLVTVSS
VL: QAVLTQPSSVSGSLGQRVSITCSGSTSNIGKCDVGWYQRVPESGLRTIIYGNSKRPSGVPDRFSGSKSGTVATLTISSLQAEDEAEYFCATGDYSLRTAVFGSGTTLIVL
B14: C4 (antibody, V domains shown)
VH: QVQLRESGPSLVKPSQTLFLTCTVSGFSLTSYSVNWVRQTPGKMLECLGGIATSGSTGYNPVLKSRLRITKDNSKSQVSLSVSNVTPEDTATYYCAKWSSRGGYDCGVHSSDYSYLDAWGQGLLVTVSS
VL: QAVLTQPSSVSASLGQRVSITCSGSSSNIGRYGATWYQQVPGSGLRTIIYGSSRRPSGVPDRFSGSKSGNTVTLTISSLQPEDEADYFCAAYDISTNAVFGSGTTLTLL

Biological target: FMDV O/Mya/98 146S antigen (Foot-and-mouth disease virus serotype …, UniProt G8JKC2, strain)
Test: cell-based or functional assay

Row | Binder | virus neutralizing test on BHK-21 cells, IC50 [µg/mL]
1 | B1 | 3.28
2 | B2 | 4.69
3 | B3 | 1.82
4 | B4 | 2.6
5 | B5 | 17.9
6 | B6 | 3.91
7 | B7 | 4.17
8 | B8 | 0.78
9 | B9 | 3.13
10 | B10 | 7.81
11 | B11 | 3.13
12 | B12 | 12.2
13 | B13 | 5.56
14 | B14 | 2.86

From publication PMC6908506, “Development of Foot-and-Mouth Disease Virus-Neutralizing Monoclonal Antibodies Derived From Plasmablasts of Infected Cattle and Their Germline Gene Usage” (Frontiers in Immunology, 2019)
